In the Human Domainome abundance scans (Beltran et al. 2025):
± gives the uncertainty stated by the source.

B1: Cold shock protein CspB, residues 1 to 66; numbered along this chain, P41016 (parent)
chain: MQRGKVKWFNNEKGYGFIEVEGGSDVFVHFTAIQGEGFKTLEEGQEVSFEIVQGNRGPQAANVVKL

Variants of: B1
Assay: abundance fitness (aPCA) (normalised: wild type 0, dead -1); higher = more abundant; growth selection in yeast, the domain comes from the species named
Settings: Bacillus caldolyticus

Variant	abundance fitness
F17L	-0.171 ± 0.025
F17E	-0.172 ± 0.049
F17N	-0.171 ± 0.07
G35D	-0.004 ± 0.076
G35R	-0.111 ± 0.033
G35C	0.02 ± 0.069
G35E	-0.001 ± 0.038
G35N	-0.06 ± 0.11
Q45M	-0.032 ± 0.057
Q45F	-0.097 ± 0.082
Q45P	-0.655 ± 0.051
Q45L	-0.021 ± 0.03
Q45W	-0.023 ± 0.034
Q45I	-0.09 ± 0.075
Q45T	-0.038 ± 0.05
R3M	0.019 ± 0.051
R3Y	0.027 ± 0.065
R3V	-0.013 ± 0.034
R3E	-0.019 ± 0.041
R3F	-0.003 ± 0.062
R3N	-0.061 ± 0.067
R3C	-0.076 ± 0.059
G54I	-0.227 ± 0.13
G54P	-0.308 ± 0.062

Variant	abundance fitness
G54T	0.01 ± 0.068
G54R	-0.044 ± 0.037
G54K	-0.038 ± 0.098
G54N	-0.11 ± 0.12
G54L	-0.131 ± 0.052
G54C	-0.013 ± 0.047
G54M	-0.236 ± 0.18
E21T	0.014 ± 0.055
E21Y	-0.022 ± 0.042
E21W	-0.033 ± 0.044
E21D	-0.028 ± 0.076
V47A	-0.215 ± 0.25
V47M	-0.702 ± 0.48
V52S	-0.018 ± 0.039
V52Y	-0.043 ± 0.092
V52D	-0.092 ± 0.072
V52H	-0.033 ± 0.075
V52G	-0.029 ± 0.035
N11Q	-0.138 ± 0.063
N11Y	-0.111 ± 0.074
N11R	-0.017 ± 0.038
N11S	-0.033 ± 0.039
N11G	-0.071 ± 0.038
N11A	-0.052 ± 0.046

Variant	abundance fitness
N11F	-0.052 ± 0.07
F30D	-0.188 ± 0.068
F30L	-0.103 ± 0.027
F30N	-0.07 ± 0.077
F30M	-0.169 ± 0.047
F30H	-0.023 ± 0.067
F30G	-0.089 ± 0.04
F30S	-0.047 ± 0.036
F30A	-0.035 ± 0.047
F30C	-0.091 ± 0.052
V6E	-1.02 ± 0.091
V6W	-0.756 ± 0.058
V6Q	-0.824 ± 0.066
N62Q	0.152 ± 0.43
Q59I	-0.08 ± 0.063
Q59M	-0.011 ± 0.044
Q59A	-0.003 ± 0.031
Q2A	-0.003 ± 0.046
Q2P	-0.206 ± 0.038
Q2W	0.001 ± 0.051
Q2S	-0.034 ± 0.035
Q2E	0.011 ± 0.067
Y15E	-0.188 ± 0.041
Y15L	-0.117 ± 0.026

Variant	abundance fitness
Y15D	-0.332 ± 0.072
Y15M	-0.138 ± 0.047
Y15R	-0.227 ± 0.025
Y15F	-0.047 ± 0.05
S24D	-0.002 ± 0.071
S24H	0.007 ± 0.072
S24W	-0.031 ± 0.039
S24Y	-0.016 ± 0.084
S24C	-0.029 ± 0.041
S24R	0.01 ± 0.029
S24M	-0.019 ± 0.055
K65Q	-0.023 ± 0.06
K65E	-0.03 ± 0.084
K65D	-0.019 ± 0.082
K65S	-0.015 ± 0.035
K65T	-0.003 ± 0.055
K65N	-0.051 ± 0.057
K65F	-0.098 ± 0.05
L41A	-0.111 ± 0.041
L41P	-0.46 ± 0.044
L41N	-0.515 ± 0.062
E46V	-0.031 ± 0.037
E46C	-0.046 ± 0.053
E46R	-0.014 ± 0.029

Variant	abundance fitness
E46S	0.015 ± 0.034
E46I	-0.071 ± 0.058
E46M	0.006 ± 0.048
E46F	-0.025 ± 0.044
E46T	-0.053 ± 0.048
E46A	-0.018 ± 0.052
G23H	-0.053 ± 0.08
G23F	-0.034 ± 0.049
G23P	-0.011 ± 0.045
G23R	0.028 ± 0.037
G23N	-0.066 ± 0.081
G23A	0.03 ± 0.046
W8R	-0.075 ± 0.42
W8C	-0.046 ± 0.12
M1W	-0.086 ± 0.072
M1T	-0.03 ± 0.057
M1A	-0.046 ± 0.047
M1D	-0.086 ± 0.085
M1K	-0.1 ± 0.069
T31R	-0.044 ± 0.028
T31V	-0.345 ± 0.043
T31F	-0.431 ± 0.052
T31S	-0.011 ± 0.032
T31K	-0.066 ± 0.054

Variant	abundance fitness
T31E	-0.087 ± 0.068
T31H	-0.074 ± 0.077
T31W	-0.289 ± 0.035
K7D	-0.199 ± 0.048
K7A	-0.002 ± 0.03
K7I	0.02 ± 0.052
K7E	-0.225 ± 0.055
K7V	-0.034 ± 0.028
K7P	-0.817 ± 0.057
K7M	-0.072 ± 0.049
E19L	0.019 ± 0.033
E19D	0.006 ± 0.072
E19F	-0.048 ± 0.05
Q53L	-0.027 ± 0.028
V64C	0.032 ± 0.07
V64Y	-0.054 ± 0.059
V64A	-0.03 ± 0.044
V64S	-0.019 ± 0.04
V64E	-0.003 ± 0.056
V64D	-0.057 ± 0.072
G16H	-1 ± 0.15
G16R	-1.08 ± 0.056
G16T	-0.954 ± 0.087
G16E	-1.16 ± 0.12

Variant	abundance fitness
E36R	0.006 ± 0.039
E36G	-0.004 ± 0.034
K5D	-0.156 ± 0.082
K5C	-0.003 ± 0.049
K5Y	-0.072 ± 0.061
K5H	0.005 ± 0.065
K5S	-0.027 ± 0.034
K5E	-0.065 ± 0.056
K5A	-0.042 ± 0.042
K5F	-0.008 ± 0.061
E42Q	0.043 ± 0.066
E42L	-0.006 ± 0.031
E42G	-0.001 ± 0.036
E42D	0.004 ± 0.072
E42I	-0.051 ± 0.055
A60Q	-0.717 ± 0.064
A60F	-0.79 ± 0.078
A60H	-0.771 ± 0.099
A60N	-1.08 ± 0.21
F38K	-0.049 ± 0.051
F38G	-0.048 ± 0.032
F38C	-0.103 ± 0.058
F38T	-0.119 ± 0.064
F38I	-0.041 ± 0.067

Variant	abundance fitness
T40N	-0.078 ± 0.048
T40M	-0.04 ± 0.04
T40V	-0.043 ± 0.041
G44V	-0.344 ± 0.031
G44I	-0.567 ± 0.077
G44P	-0.311 ± 0.051
G44S	-0.029 ± 0.042
I51N	-0.071 ± 0.074
I51Q	0.007 ± 0.047
I51R	-0.004 ± 0.034
I51Y	0.037 ± 0.089
A61W	-0.003 ± 0.058
A61N	-0.061 ± 0.063
A61V	-0.06 ± 0.06
G4Y	-0.81 ± 0.041
G4H	-0.409 ± 0.029
G4F	-0.866 ± 0.035
G4D	-0.891 ± 0.038
G4Q	-0.428 ± 0.035
G4A	-0.117 ± 0.025
G4W	-1.05 ± 0.067
V20I	-0.014 ± 0.056
V20P	0.018 ± 0.041
V20N	-0.028 ± 0.094

Variant	abundance fitness
V20E	-0.002 ± 0.043
V20R	-0.006 ± 0.053
V20T	0.008 ± 0.044
L66G	0.005 ± 0.08
L66A	-0.055 ± 0.065
L66H	-0.214 ± 0.11
L66F	0.033 ± 0.086
S48G	-0.005 ± 0.043
S48V	-0.059 ± 0.041
S48E	0.027 ± 0.054
S48F	-0.008 ± 0.063
S48T	0.002 ± 0.047
S48C	-0.047 ± 0.061
P58D	-0.037 ± 0.059
P58H	-0.142 ± 0.12
P58I	-0.055 ± 0.072
P58V	-0.021 ± 0.035
P58L	-0.018 ± 0.028
P58E	-0.017 ± 0.058
P58S	-0.026 ± 0.038
P58R	-0.029 ± 0.044
P58G	-0.082 ± 0.039
E50M	-0.017 ± 0.058
E50Q	0 ± 0.052

Variant	abundance fitness
E50G	-0.032 ± 0.032
E50H	-0.07 ± 0.076
E50P	-0.964 ± 0.11
E50I	-0.049 ± 0.066
E50R	-0.002 ± 0.036
E50V	-0.018 ± 0.036
R56W	-0.207 ± 0.045
R56Q	-0.044 ± 0.062
R56C	-0.097 ± 0.057
R56Y	-0.131 ± 0.065
R56E	-0.066 ± 0.053
V28Q	-0.901 ± 0.084
V28N	-0.999 ± 0.34
V28R	-0.993 ± 0.05
V28A	-0.1 ± 0.045
V28S	-0.355 ± 0.03
V28E	-1.1 ± 0.15
V28C	0.017 ± 0.048
D25S	-0.053 ± 0.032
D25V	-0.141 ± 0.035
D25G	-0.257 ± 0.047
G14Q	-0.196 ± 0.044
G14K	-0.06 ± 0.061
G14R	-0.062 ± 0.031

Variant	abundance fitness
E12R	0.049 ± 0.034
E12C	-0.004 ± 0.049
E12S	0.022 ± 0.032
E12N	0.042 ± 0.066
E12L	0.017 ± 0.029
F27I	-0.208 ± 0.056
F27M	-0.169 ± 0.049
F27C	-0.243 ± 0.047
K13V	-0.044 ± 0.045
K13R	-0.007 ± 0.037
K13E	-0.133 ± 0.05
K13C	-0.071 ± 0.062
K13P	-0.154 ± 0.036
K13M	-0.019 ± 0.042
K13L	0.014 ± 0.027
K13A	-0.078 ± 0.058
N55I	0.059 ± 0.13
N55K	0.018 ± 0.15
N55D	-0.309 ± 0.28
N55R	-0.075 ± 0.094
N55V	0.005 ± 0.099
Q34K	0.01 ± 0.053
Q34H	-0.123 ± 0.15
Q34M	0.006 ± 0.042

Variant	abundance fitness
Q34L	-0.02 ± 0.031
A32N	-0.045 ± 0.058
A32I	-0.666 ± 0.068
A32R	-0.084 ± 0.036
A32Q	0.023 ± 0.055
A32W	-0.351 ± 0.05
N10K	-0.038 ± 0.056
N10F	-0.132 ± 0.061
N10I	-0.023 ± 0.074
N10E	-0.079 ± 0.051
N10T	-0.118 ± 0.051
N10R	-0.031 ± 0.028
N10C	-0.027 ± 0.048
N10M	-0.083 ± 0.053
K39A	-0.013 ± 0.049
K39W	-0.194 ± 0.048
K39Q	-0.071 ± 0.044
K39R	-0.003 ± 0.037
H29Q	-0.174 ± 0.15
H29S	-0.345 ± 0.14
H29N	-0.228 ± 0.12
H29V	-0.506 ± 0.28
V63E	-0.782 ± 0.077
V63N	-0.528 ± 0.073

Variant	abundance fitness
V63C	0.009 ± 0.083
V63A	-0.205 ± 0.044
V63K	-0.721 ± 0.071
V63R	-0.71 ± 0.042
I33A	-0.311 ± 0.038
I33F	-0.111 ± 0.046
I33V	-0.024 ± 0.033
I33C	-0.127 ± 0.052
F49P	-0.984 ± 0.079
F49E	-0.965 ± 0.11
F49Q	-0.893 ± 0.094
F49M	-0.002 ± 0.044
F49N	-1.05 ± 0.21
V26S	-0.195 ± 0.029
V26Y	-0.074 ± 0.054
V26G	-0.573 ± 0.036
V26E	-0.372 ± 0.043
G22E	-0.013 ± 0.054
G22M	-0.01 ± 0.047
F9I	-0.272 ± 0.045
F9C	-0.35 ± 0.038
F9P	-0.956 ± 0.069
F9S	-0.408 ± 0.028
F9N	-0.854 ± 0.11

Variant	abundance fitness
F9Q	-0.854 ± 0.073
F9D	-0.881 ± 0.11
I18W	-0.973 ± 0.07
I18T	-0.721 ± 0.048
I18K	-0.926 ± 0.078
I18Q	-1.12 ± 0.14
I18N	-0.85 ± 0.13
G57R	-0.089 ± 0.036
G57S	-0.093 ± 0.036
G57C	-0.163 ± 0.055
G57L	-0.158 ± 0.034
G57Y	-0.127 ± 0.058
G37S	-0.072 ± 0.034
G37V	-0.086 ± 0.033
G37D	-0.133 ± 0.074
G37E	-0.05 ± 0.043
G37H	-0.036 ± 0.048
E43G	0.04 ± 0.04
E43N	0.01 ± 0.076
E43V	-0.033 ± 0.05
E43I	-0.031 ± 0.065
E43P	0.004 ± 0.045
